B1: HHH_rd1_0493 (parent)
chain: RDEDEKEKIKEALKRGNEDKAKEIAKRANVSPEEYERLRKEAE
B2: EHEE_rd3_0053 (parent)
chain: TYTFKVDNKDQAKKAAKWAKKLGLSFQIEKHGDTFKITVQ

Variants of: B1
Test: folding stability dG (cDNA display proteolysis); higher = more stable
Details: PBS, room temperature

Folding stability dG [kcal/mol]: each site, then its substitutions
K40: D 2.63, V 3.01, Q 3.26, W 3.23, M 3.2, H 3.01, P 0.577, I 3.16, S 2.9, G 2.62, N 2.72, E 2.98, R 3.33, A 3.15, L 3.21, Y 2.89, F 2.8, T 2.8
E41: K 1.99, G 1.59, I 2.38, F 1.84, Q 2.77, S 2.05, P 0.8, H 1.7, N 1.77, V 2.15, R 2.07, D 2.35, T 1.97, Y 1.63, W 2.38, A 2.55, M 2.58, L 2.63, C 1.88
R39: Y 1.87, W 2.02
A42: E 1.25, W 2.2, N 1.81, V 3.33, M 2.51, Q 1.88, L 2.54, H 1.55, S 2.37, T 2.31, D 0.965, Y 2.14, P 0.795, F 2.29, R 1.21, I 2.87, G 1.62, K 1.03
E43: Y 3.29, P 1.3, M 3.31, I 3.07, S 2.62, R 2.72, K 2.64, N 2.59, W 3.31, V 2.79, C 2.61, Q 3.02, L 3.33, T 2.65, H 2.77, D 2.56, A 2.94, F 3.37, G 2.47

Variants of: B2
Test: as above
Details: PBS, room temperature

Folding stability dG [kcal/mol] of substitutions, site by site:
V6: I 1.89, G 0.437, D -0.058, T 2.1, S 1.03, K 0.315, M 1.68, N -0.311, H 0.343, R 0.551, Y 1.92, L 2.32, W 1.28, E 0.257, A 1.62, Q 0.045, F 2.32, P 0.243
N8: I 1.16, S 2.56, G 2.35, L 1.43, A 1.27, Q 1.47, M 1.15, R 1.86, F 1.46, W 1.24, Y 1.27, K 1.62, D 2.02, V 0.955, H 1.73, E 1.16, P 0.466, T 2.78
D10: E 2.73, V 2.52, I 2.62, C 2.72, Q 2.68, R 2.8, P 1.89, T 2.73, K 2.74, L 2.68, N 2.6, A 2.83, H 2.7, M 2.67, S 2.71, F 2.75, W 2.98, G 2.44, Y 3.04
Y2: N 0.999, E 0.685, C 3.58, K 1.59, F 2.57, R 1.97, D 0.593, V 2.01, A 1.23, M 2.08, P 0.617, S 1.18, H 1.95, I 2.27, W 2.7, T 1.42, L 2.25, Q 1.17, G 0.704
K5: A 2.54, L 3.2, F 3.77, V 3.31, D 2.34, Q 2.9, H 3.07, P 1.7, T 3.28, E 2.93, G 1.89, S 2.96, M 3.24, R 2.22, N 2.79, Y 3.89, I 3.47, W 3.77
K13: P -0.412, L 2.46, R 2.66, W 2.35, N 2.27, S 2.11, C 3.24, A 2.31, I 2.49, T 2.12, D 2.46, G 1.72, M 2.55, E 2.32, V 2.3, Q 2.3, Y 2.32, H 2.07, F 2.23
T1: V 2.43, C 3.57, F 2.42, H 2.3, G 2.42, W 2.67, S 2.62, P 2.15, E 2.25, K 2.46, I 2.51, D 1.93, Q 2.34, L 2.21, M 2.37, A 2.38, Y 2.64, N 2.17, R 2.45
D7: F 2.83, Y 2.78, S 2.66, T 2.47, H 2.58, I 2.27, N 2.62, V 2.33, C 3.29, R 2.68, M 2.51, Q 2.61, W 2.66, K 2.77, E 2.37, P 2.27, L 2.4, G 2.45, A 2.71
T3: H 2.1, F 2.2, M 1.99, E 2.15, Y 2.27, G 0.986, C 2.98, A 1.79, R 1.6, K 1.46, N 1.43, I 2.43, Q 1.95, S 2.34, W 2.67, V 2.49, D 1.34, L 1.39, P 0.945
F4: V 1.2, G 0.271, I 1.79, E 0.316, N -0.163, M 1.23, W 2.38, T 0.349, R 0.333, L 1.38, Y 1.69, H 0.581, P 0.467, D -0.075, Q 0.162, S 0.126, K 0.404, C 3.42, A 0.455
K9: M 2.74, I 2.87, Y 2.86, V 2.57, N 1.9, L 2.9, H 2.25, R 2.46, P 2.31, Q 2.26, G 1.9, A 2.62, S 2.14, E 2.65, F 2.74, D 1.91, W 3.2, T 2.02
K14: N 2, M 2.34, A 2.62, I 2.21, E 1.95, L 2.33, D 1.56, P -0.126, R 2.62, Q 2.24, H 2.06, S 2.04, T 1.89, F 2.14, G 1.53
Q11: Y 1.74, N 1.72, L 2.33, A 2.65, F 1.85, R 1.99, E 2.3, P 0.025, G 1.97, W 1.79, H 2.1, K 2.38, D 2.39, M 2.36, T 1.93, I 1.97, V 1.95, C 3.05, S 2.18
A12: W 1.29, G 1.05, E 0.263, R 1.29, L 2.42, K 1.26, S 1.17, Y 1.31, H 0.275, P -0.057, I 1.97, Q 0.843, V 2.33, D -0.537, M 2.25, N -0.078, F 1.36, T 1.06, C 3.23
